B1: SEQ ID NO 35 (designed binder)
chain: MGSWSEFYNRLDAIESRLLALGGSEAELALFEIQIARFEKVLQAYKGKGNPEVEALRGEARAIFAELYAYRHN
B2: SEQ ID NO 36 (designed binder)
chain: MGSWYEFYNRLYAIEIRLYALGGSEAELAAFEKEIAAFESELQAYKGKGNPEVERLRVRAAKIRVILQAYRHN
B3: SEQ ID NO 37 (designed binder)
chain: MGSWLWFKIFLAEIKYFLEALGGSEAELAAFDFEIHAFHVELFAYKGKGNPEVEVLREVAAEIRWDLQAYRHN

Biological target: KIR-Fc
Assay: phage ELISA, target-Fc against non-specific control

| Binder | ELISA ratio (target to background) |
| --- | --- |
| B1 | 8.4 |
| B2 | 4.24 |
| B3 | 4.17 |
